T1: Human IL-11 (human, UniProt P20809 22-199)
T1 construct: Recombinant human IL-11 (GenScript Cat. No. Z03108-1) or IL-11 secreted by human cells; the mature form is said to have 178 residues; also called recombinant human IL-11; endogenously produced IL-11
T1 sequence: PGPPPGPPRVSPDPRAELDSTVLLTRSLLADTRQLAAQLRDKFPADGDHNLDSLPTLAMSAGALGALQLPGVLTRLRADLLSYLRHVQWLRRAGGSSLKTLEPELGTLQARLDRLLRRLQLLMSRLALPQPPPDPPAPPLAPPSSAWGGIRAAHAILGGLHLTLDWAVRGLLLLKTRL

T2: Mouse IL-11 (mouse, UniProt P47873 22-199, limits assumed)
T2 construct: also called murine IL-11; recombinant murine IL-11
T2 sequence (looked up): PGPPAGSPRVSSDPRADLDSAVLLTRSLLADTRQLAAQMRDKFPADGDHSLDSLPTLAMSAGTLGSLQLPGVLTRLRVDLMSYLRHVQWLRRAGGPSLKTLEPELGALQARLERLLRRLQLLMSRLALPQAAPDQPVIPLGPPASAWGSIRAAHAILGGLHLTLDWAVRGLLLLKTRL

T3: FLAG-tagged human IL-11 expressed at the surface of transiently transfected cells (human, UniProt P20809 22-199)
T3 construct: also called IL-11 expressing HEK cells; target cells expressing human IL-11 at their surface; not shown: FLAG tag added to the N-terminus
T3 sequence: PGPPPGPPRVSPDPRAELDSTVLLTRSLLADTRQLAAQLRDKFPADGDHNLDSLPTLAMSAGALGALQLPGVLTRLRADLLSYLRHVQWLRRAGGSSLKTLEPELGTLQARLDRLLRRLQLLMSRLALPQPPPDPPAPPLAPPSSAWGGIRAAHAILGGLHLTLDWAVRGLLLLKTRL


Legend:
Human IL-11 [1] = biological target: T1, Human IL-11; test: ELISA
Method: (§1) The soluble scFv were produced by recombinant expression in E. coli, and analysed for their ability to bind to human IL-11 and murine IL-11 by ELISA. Briefly, the respective antigen was coated to wells of an ELISA plate, the cell culture supernatant containing the respective scFv was added at a 1:2 dilution, and binding was detected.

Mouse IL-11 = biological target: T2, Mouse IL-11; test: ELISA
Method: as §1

Human IL-11 [2] = biological target: T1, Human IL-11; test: ELISA on coated recombinant human IL-11 (100 ng/well), scFv-Fc
Method: The light chain shuffled anti-IL-11 antibodies were analysed to determine the EC50 for binding to human IL-11 by ELISA according to standard methods. Briefly, wells of microtiter plates were coated with recombinant human IL-11 (100 ng/well), scFv-Fc comprising the VH and VL domains of the clones were added in a dilution series and antibody binding was detected using a polyclonal antibody detection system.

Human IL-11 [3] = biological target: T1, Human IL-11; test: cell-based or functional assay
Human IL-11 [4] = biological target: T1, Human IL-11; test: SPR (BIAcore T200) single cycle kinetics, human IL-11 on CM5 chip, 1:1 model
From the text: HEK293 EBNDA cells were transfected with vectors encoding scFv corresponding to YU100-H01, 01A, 01G, 01I, 01L, 01Q, 01S, 01T, 01V, YU100-G08, 02A, 02G, 02I, 02L, 02Q, 02S, 02T or 02V.

Human IL-11 [5] = biological target: T1, Human IL-11; test: SPR, Single Cycle Kinetics, BIAcore T200; human IL-11 immobilised on CM5 chip, antibody in IgG1 format as analyte, 1:1 model
[6] = biological target: T3, FLAG-tagged human IL-11 expressed at …; test: flow cytometry, hybridoma supernatant on cells transfected with pB1-IL11-hum.FL; relative to the anti-FLAG positive control (100%)
[7] = biological target: T3, FLAG-tagged human IL-11 expressed at …; test: flow cytometry, hybridoma supernatant on cells transfected with pB1-IL11-hum.FL

| Binder | Kd (Human IL-11 [5]) | koff (Human IL-11 [5]) | kon (Human IL-11 [5]) | further results |
| --- | --- | --- | --- | --- |
| YU100-G08 (antibody, human IgG1, V domains shown, Light chain shuffled human antibody; Only the variable domains are tied to the clone) VH: QVQLVQSGGGVVQPGRSLRLSCAASGFTFSSYGMHWVRQAPGKGLEWVAVISYDGSNKYYADSVKGRFTISRDNSKNTLYLQMNSLRAEDTAVYYCAKIGATDPLDYWGQGTLVTVSS VL: QSALTQPRSVSGSPGQSVTLSCTGTSSDVGGYNYVSWYQHYPGKAPKLMIFDVNERSSGVPDRFSGSKSGNTASLTISGLQAEDEADYYCCSYAGRYTWMFGGGTKVTVLG |  |  |  | hIL11 - average signal (Human IL-11 [1]): 0.153; mIL11 - average signal (Mouse IL-11): 0.27; EC50 (Human IL-11 [2]): 0.028 µg/mL; MMP2 production, Experiment 1 (human atrial fibroblasts + TGFB1) (Human IL-11 [3]): 42.3 ng/mL; MMP2 production, Experiment 2 (human atrial fibroblasts + TGFB1) (Human IL-11 [3]): 38 ng/mL; Kd (Human IL-11 [4]): 3.51 nM; koff (Human IL-11 [4]): 0.0013 s⁻¹; kon (Human IL-11 [4]): 369000 M⁻¹ s⁻¹ |
| YU100-H01 (antibody, human IgG1, V domains shown, Light chain shuffled human antibody; Only the variable domains are tied to the clone) VH: QVQLVQSGGGVVQPGRSLRLSCAASGFTFSSYAMHWVRQAPGKGLEWVAVISYDGSNKYYADSVKGRFTISRDNSKNTLYLQMNSLRAEDTAVYYCARIMGYDYGDYDVVDYWGQGTLVTVSS VL: QSALTQPRSVSGSPGQSVTISCTGTSSDVGAYNYVSWYQQHPGKAPKLMIYDVSERPSGVPDRFSGSKSGNTASLTISGLQAEDEADYYCCSYAGSYTWVFGGGTKLTVLG | 42.3 nM | 0.000658 s⁻¹ | 14800 M⁻¹ s⁻¹ | hIL11 - average signal (Human IL-11 [1]): 0.43; mIL11 - average signal (Mouse IL-11): 0.283; EC50 (Human IL-11 [2]): 0.053 µg/mL; MMP2 production, Experiment 1 (human atrial fibroblasts + TGFB1) (Human IL-11 [3]): 48.3 ng/mL; MMP2 production, Experiment 2 (human atrial fibroblasts + TGFB1) (Human IL-11 [3]): 42.2 ng/mL |
| YU100-G08_02A (antibody, V domains shown, C91A variant of the YU100-G08 VL) VH: QVQLVQSGGGVVQPGRSLRLSCAASGFTFSSYGMHWVRQAPGKGLEWVAVISYDGSNKYYADSVKGRFTISRDNSKNTLYLQMNSLRAEDTAVYYCAKIGATDPLDYWGQGTLVTVSS VL: QSALTQPRSVSGSPGQSVTLSCTGTSSDVGGYNYVSWYQHYPGKAPKLMIFDVNERSSGVPDRFSGSKSGNTASLTISGLQAEDEADYYCASYAGRYTWMFGGGTKVTVLG |  |  |  | Kd (Human IL-11 [4]): 4.46 nM; koff (Human IL-11 [4]): 0.00312 s⁻¹; kon (Human IL-11 [4]): 699000 M⁻¹ s⁻¹ |
| 01A (antibody, IgG1, V domains shown, C91A variant of the YU100-H01 VL) VH: QVQLVQSGGGVVQPGRSLRLSCAASGFTFSSYAMHWVRQAPGKGLEWVAVISYDGSNKYYADSVKGRFTISRDNSKNTLYLQMNSLRAEDTAVYYCARIMGYDYGDYDVVDYWGQGTLVTVSS VL: QSALTQPRSVSGSPGQSVTISCTGTSSDVGAYNYVSWYQQHPGKAPKLMIYDVSERPSGVPDRFSGSKSGNTASLTISGLQAEDEADYYCASYAGSYTWVFGGGTKLTVLG | 62.6 nM | 0.00081 s⁻¹ | 12900 M⁻¹ s⁻¹ |  |
| 01I (antibody, IgG1, V domains shown, C91I variant of the YU100-H01 VL) VH: QVQLVQSGGGVVQPGRSLRLSCAASGFTFSSYAMHWVRQAPGKGLEWVAVISYDGSNKYYADSVKGRFTISRDNSKNTLYLQMNSLRAEDTAVYYCARIMGYDYGDYDVVDYWGQGTLVTVSS VL: QSALTQPRSVSGSPGQSVTISCTGTSSDVGAYNYVSWYQQHPGKAPKLMIYDVSERPSGVPDRFSGSKSGNTASLTISGLQAEDEADYYCISYAGSYTWVFGGGTKLTVLG | 29.2 nM | 0.00269 s⁻¹ | 92100 M⁻¹ s⁻¹ |  |
| 01S (antibody, IgG1, V domains shown, C91S variant of the YU100-H01 VL) VH: QVQLVQSGGGVVQPGRSLRLSCAASGFTFSSYAMHWVRQAPGKGLEWVAVISYDGSNKYYADSVKGRFTISRDNSKNTLYLQMNSLRAEDTAVYYCARIMGYDYGDYDVVDYWGQGTLVTVSS VL: QSALTQPRSVSGSPGQSVTISCTGTSSDVGAYNYVSWYQQHPGKAPKLMIYDVSERPSGVPDRFSGSKSGNTASLTISGLQAEDEADYYCSSYAGSYTWVFGGGTKLTVLG | 107 nM | 0.000905 s⁻¹ | 8470 M⁻¹ s⁻¹ |  |
| 01Q (antibody, IgG1, V domains shown, C91Q variant of the YU100-H01 VL) VH: QVQLVQSGGGVVQPGRSLRLSCAASGFTFSSYAMHWVRQAPGKGLEWVAVISYDGSNKYYADSVKGRFTISRDNSKNTLYLQMNSLRAEDTAVYYCARIMGYDYGDYDVVDYWGQGTLVTVSS VL: QSALTQPRSVSGSPGQSVTISCTGTSSDVGAYNYVSWYQQHPGKAPKLMIYDVSERPSGVPDRFSGSKSGNTASLTISGLQAEDEADYYCQSYAGSYTWVFGGGTKLTVLG | 104 nM | 0.000966 s⁻¹ | 9290 M⁻¹ s⁻¹ |  |
| 01G (antibody, IgG1, V domains shown, C91G variant of the YU100-H01 VL) VH: QVQLVQSGGGVVQPGRSLRLSCAASGFTFSSYAMHWVRQAPGKGLEWVAVISYDGSNKYYADSVKGRFTISRDNSKNTLYLQMNSLRAEDTAVYYCARIMGYDYGDYDVVDYWGQGTLVTVSS VL: QSALTQPRSVSGSPGQSVTISCTGTSSDVGAYNYVSWYQQHPGKAPKLMIYDVSERPSGVPDRFSGSKSGNTASLTISGLQAEDEADYYCGSYAGSYTWVFGGGTKLTVLG | 560 nM | 0.000986 s⁻¹ | 1760 M⁻¹ s⁻¹ |  |
| 01L (antibody, IgG1, V domains shown, C91L variant of the YU100-H01 VL) VH: QVQLVQSGGGVVQPGRSLRLSCAASGFTFSSYAMHWVRQAPGKGLEWVAVISYDGSNKYYADSVKGRFTISRDNSKNTLYLQMNSLRAEDTAVYYCARIMGYDYGDYDVVDYWGQGTLVTVSS VL: QSALTQPRSVSGSPGQSVTISCTGTSSDVGAYNYVSWYQQHPGKAPKLMIYDVSERPSGVPDRFSGSKSGNTASLTISGLQAEDEADYYCLSYAGSYTWVFGGGTKLTVLG | 33.5 nM | 0.000526 s⁻¹ | 15700 M⁻¹ s⁻¹ |  |
| BSN-1H2 (antibody, IgG1, V domains shown, also called A1) VH: QAQLQQSGAELARPGASVKLSCKASGYTFTSYGITWVKQRTGQGLEWIGDIYPRSGNIYYNENFKGEATLTADKSSSTAYMQLSRLTSEDSAVYFCARSGWEGWFAYWGQGTLVTVSV VL: DIVMTQSHKFMSTSVGDRVNITCKASQDVGSAVVWYQQKPGQSPKVLIYWASTRHTGVPDRFTGSGSGTDFTLTISNVQSEDLADYFCQQYSSYRTFGGGTKLEIK |  |  |  | binding relative to anti-FLAG positive control [6]: 157%; GMFI [7]: 197000 |
| BSN-8H11 (antibody, IgG2b, V domains shown, also called A16) VH: EVQLQQSGPELVKPGASVKIPCKASGYTFTDYNIDWVKQSHGKSLEWIGDINPNYGGTLYNQKFKGKATLTVDKSSSTAYMELRSLTSEDTAVYYCARGELGHWYFDVWGTGTTVTVSS VL: DIVLTQSPASLAVSLGQRATISCRASKSVSTSDYSYMHWYQQKPGHPPKLLIYLASNLESGVPARFSGSGSGTDFTLNIHPVEEEDAATYFCQHSRDLPPTFGGGTKLEIK |  |  |  | binding relative to anti-FLAG positive control [6]: 190%; GMFI [7]: 239000 |
| BSN-2E1 (antibody, V domains shown) VH: QVQLQESGPELVKPGASVKIPCKASGYTFTDYNMDWVKQSHGKSLEWIGDINPHNGGPIYNQKFTGKATLTVDKSSSTAYMELRSLTSEDTAVYYCARGELGHWYFDVWGTGTTVTVSS VL: NIVMTQSPKSMSMSVGERVTLTCKASENVVTYVSWYQQKPEQSPKLLIYGASNRYTGVPDRFTGSGSATDFTLTISSVQAEDLADYHCGQGYSYPYTFGGGTKLEIK |  |  |  | binding relative to anti-FLAG positive control [6]: 164%; GMFI [7]: 206000 |

The next lines start with results.

| Kd (Human IL-11 [5]) | koff (Human IL-11 [5]) | kon (Human IL-11 [5]) | Binder | further results |
| --- | --- | --- | --- | --- |
| 17.1 nM | 0.0127 s⁻¹ | 742000 M⁻¹ s⁻¹ | 01T (antibody, IgG1, V domains shown, C91T variant of the YU100-H01 VL) VH: QVQLVQSGGGVVQPGRSLRLSCAASGFTFSSYAMHWVRQAPGKGLEWVAVISYDGSNKYYADSVKGRFTISRDNSKNTLYLQMNSLRAEDTAVYYCARIMGYDYGDYDVVDYWGQGTLVTVSS VL: QSALTQPRSVSGSPGQSVTISCTGTSSDVGAYNYVSWYQQHPGKAPKLMIYDVSERPSGVPDRFSGSKSGNTASLTISGLQAEDEADYYCTSYAGSYTWVFGGGTKLTVLG |  |
| 84.7 nM | 0.000778 s⁻¹ | 9190 M⁻¹ s⁻¹ | 01V (antibody, IgG1, V domains shown, C91V variant of the YU100-H01 VL) VH: QVQLVQSGGGVVQPGRSLRLSCAASGFTFSSYAMHWVRQAPGKGLEWVAVISYDGSNKYYADSVKGRFTISRDNSKNTLYLQMNSLRAEDTAVYYCARIMGYDYGDYDVVDYWGQGTLVTVSS VL: QSALTQPRSVSGSPGQSVTISCTGTSSDVGAYNYVSWYQQHPGKAPKLMIYDVSERPSGVPDRFSGSKSGNTASLTISGLQAEDEADYYCVSYAGSYTWVFGGGTKLTVLG |  |

— patent publication US20210230266A1 (SINGAPORE HEALTH SERVICES PTE, published 2021)
